Data published in US20030027314.

B1: 0heptad-F (F zipper with the basic region deleted) (protein)
chain: ASMTGGQQMGRDPGGGTQQEVLELESRNDRLRKEVEQLERELDTLRGIFRQLPESSLVKAMGNCA
B2: 4heptadCREB (CREB with 4 heptad repeats appended at the amino terminus) (protein)
chain: ASMTGGQQMGRDPDLEQRAEELARENEELEKEAEELEQENAELENRVAVLENQNKTLIEELKALKDLYCHKSD
B3: CREB (unmodified) (protein, from a related filing)
chain: MASSPALPTQPAEEAARKREVRLMKNREAARECRRKKKEYVKCLENRVAVLENQNKTLIEELKALKDLYCHKSD
B4: 1heptad-F (protein)
chain: ASMTGGQQMGRDPGGGLEQENAELEQEVLELESRNDRLRKEVEQLERELDTLRGIFRQLPESSLVKAMGNCA
B5: 2heptad-F (protein)
chain: ASMTGGQQMGRDPGGGLEKEAEELEQENAELEQEVLELESRNDRLRKEVEQLERELDTLRGIFRQLPESSLVKAMGNCA
B6: GBF-C/EBP chimeric protein (GBF basic region on the C/EBP leucine zipper) (protein)
chain: PVKDERELKRQKRKQSNRESARRSRLRNEAECEQTQQKVLELTSDNDRLRKRVEQLSRELDTLRGIFRQLPESSLVKAMGNCA
B7: c-Jun (unmodified) (protein, from a related filing)
chain: PLSPIDMESQERIKAERKRMRNRIAASKCRKRKLERIARLEEKVKTLKAQNSELASTANMLREQVAQLKQKVMNHVNSGCQLMLTQQLQTF
B8: VBP-C/EBP chimeric protein (VBP basic region on the C/EBP leucine zipper) (protein)
chain: ASMTGGQQMGRDPLEEKVFVPDEQKDEKYWTRRKKNNVAAKRSRDARRLKENQTQQKVLELTSDNDRLRKRVEQLSRELDTLRGIFRQLPESSLVKAMGNCA
B9: 4heptad-Fos (c-Fos with the basic region replaced by four acidic heptad repeats) (protein)
chain: MASMTGGQQMGRDPDLEQRAEELARENEELEKEAEELEQENAELEAETDQLEDEKSALQTEIANLLKEKEKLEFILAAHRPACKIP
B10: C/EBP bZIP domain (chimeric GCN4-C/EBP protein) (protein)
chain: SEYQPSLFALNPMGFSPLDGSKSTNENVSASTSTAKPMVGQLIFDKFIKTEEDPGKAKKSVDKNSNEYRVRRERNNIAVRKSRDKAKQRNVETQQKVLELTSDNDRLRKRVEQLSRELDTLRGIFRQLPESSLVKAMGNCA
B11: 3heptad-F (protein)
chain: ASMTGGQQMGRDPGGGLARENEELEKEAEELEQENAELEQEVLELESRNDRLRKEVEQLERELDTLRGIFRQLPESSLVKAMGNCA
B12: 4heptad-F (protein)
chain: ASMTGGQQMGRDPGGGLEQRAEELARENEELEKEAEELEQENAELEQEVLELESRNDRLRKEVEQLERELDTLRGIFRQLPESSLVKAMGNCA

Experiments:
[1] = CD thermal melt, homodimer, 150 mM KCl
[2] = thermal melting curve, homodimer (FIG. 3)
[3] = thermal melting curve, homodimer (FIG. 3); remark: listed apart in the source
[4] = CD thermal melt, homodimer
[5] = thermal melting curve, homodimer (FIG. 4)
[6] = thermal melting curve, homodimer (FIG. 4); remark: listed apart in the source
[7] = CD thermal melt, homodimer, low salt (50 mM KCl)

Row | Protein | Tm [1] [°C] | further results
1 | B1 | 30 | –
2 | B2 | – | Tm [2]: (4heptadCREB homodimerization) is 22 °C
3 | B3 | – | Tm [3]: the melting temperature of unmodified CREB homodimerization is 47 °C
4 | B4 | 29 | –
5 | B5 | 24.8 | –
6 | B6 | 50.2 | difference of homodimer Tm from C/EBP [4]: as homodimers showed a Tm within 1 °C of C/EBP
7 | B7 | – | Tm [5]: homodimerization of unmodified c-Jun had a melting temperature of 29.4 °C
8 | B8 | 50 | difference of homodimer Tm from C/EBP [4]: as homodimers showed a Tm within 1 °C of C/EBP
9 | B9 | – | Tm [6]: homodimerization of acidically modified c-Fos ... had a melting temperature of 25 °C
10 | B10 | 49.5 | Tm [7]: 45.8 °C; fall of Tm in 50 mM KCl against 150 mM KCl [4]: less stable by 4 °C in 50 mM KCl compared with 150 mM KCl
11 | B11 | 28.3 | –
12 | B12 | 15.2 | –
